Reference: patent publication US20050221343A1 (LOS ALAMOS NATIONAL SECURITY, published 2005)
No end group written: not given here.

Target: T1, folding reporter GFP 1-10 (Aequorea victoria, UniProt P42212 1-214 = GFP)
T1 construct: range 1-214; also called folding reporter GFP fragment 1-214; FR
Experiment: co-expression from compatible pET vectors in E. coli, colony fluorescence (split GFP complementation)

T1 sequence (P42212 other isoform, or with tags, fused parts or gaps limits assumed): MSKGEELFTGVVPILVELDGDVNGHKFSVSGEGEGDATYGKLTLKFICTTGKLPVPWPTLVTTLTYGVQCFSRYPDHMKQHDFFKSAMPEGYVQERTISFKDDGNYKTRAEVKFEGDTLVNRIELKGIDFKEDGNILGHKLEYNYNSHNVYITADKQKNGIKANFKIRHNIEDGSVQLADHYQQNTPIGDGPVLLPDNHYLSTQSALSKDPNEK

B1: GFP S11 wild type (peptide)
peptide: KRDHMVLLEFVTAAGITGT
modifications: also: fused to sulfite reductase
notes: also called GFP S11 214-230; wild type GFP S11
B1: no binding.
